Experimental data taken from patent US12702697B2, “Compositions and methods for treatment of headache disorders and neuropathic pain” (Washington University, priority 2019, dated 2026).

Key:
[1] = system: mTBI-induced facial mechanical hypersensitivity in mice; assay: Mouse model of mild traumatic brain injury-induced post-traumatic headache (facial mechanical thresholds, low-dose NTG priming); format: in vivo
From the text: Mouse model of mild traumatic brain injury-induced post-traumatic headache. Adult Swiss Webster mice (30-35 g) were subjected to mTBI using a modified closed head weight-drop method. 43, 58 Briefly, mice were anesthetized with 3% isoflurane for 90 seconds and were placed chest down on a foam sponge (4-cm thickness and 0.062-g/cm3 density) directly underneath a hollow cylindrical tube (1.5-cm inner diameter) placed approximately 1 cm vertically over the mouse's head. To induce mTBI, a 30-g weight (1.3-cm diameter and 3.4-cm height) was dropped through the tube from a height of 80 cm, striking the center point between the ears once. All mice regained righting reflex within 2 minutes. […] Sham mice were anesthetized with 3% isoflurane for 90 seconds but not subjected to the weight drop. Facial mechanical thresholds were measured before and at various time points after mTBI. Daily ldIL2 or saline were administered 1 or 7 days after the sham or mTBI procedure. To reveal mTBI-induced hyperalgesia priming, mice received daily i.p. injections of NTG (0.1 mg/kg, i.p.) for 4 to 6 days, starting at 35 days after mTBI. Facial mechanical thresholds were measured between day 35 and 43 days after mTBI. Note that on the days that the mouse behaviors were tested, NTG and/or IL2 were always injected after completing the behavioral tests.
Withdrawal responses to facial mechanical stimuli. The hair on mouse forehead (above and between 2 eyes) was shaved the day before testing. On the test day, the experimenter gently held the mouse on the palm with minimal restraint and applied the calibrated von Frey filament perpendicularly to the shaved skin, causing the filament to bend for 5 seconds. A positive response was determined by the following criteria as previously described: mouse vigorously stroked its face with the forepaw, head withdrawal from the stimulus, or head shaking (Elliott M B et al., Headache 2012; 52:966-84). The up-down paradigm was used to determine the 50% withdrawal threshold.

[2] = human, in vivo; cited from earlier work
[3] = daily ld-IL2 starting 1 day after mTBI for 9 days, female Swiss Webster

B1: ld-IL2: Recombinant mouse IL2 (carrier-free; Biolegend), given as daily low-dose i.p. injection (protein, UniProt P04351 21-169, looked up)
Interleukin-2: APTSSSTSSSTAEAQQQQQQQQQQQQHLEQLLMDLQELLSRMENYRNLKLPRMLTFKFYLPKQATELKDLQCLEDELGPLRHVLDLTQSKSFQLEDAENFISNIRVTVVKLKGSDNTFECQFDDESATVVDFLRRWIAFCQSIISTSPQ
In the case of B1, the “persistent facial mechanical hypersensitivity to repeated low-dose NTG after mTBI” value ([1]; 3 weeks after cessation of ld-IL2, male Swiss Webster) is reported as “failed to establish”, the “duration of protection from mTBI-induced hyperalgesia priming” value ([1]; 9 days of ld-IL2 treatment, male and female mice) is reported as “at least 30 days” and the “facial mechanical threshold, % of the baseline value” ([1]; after 3 days of ld-IL2 (day 10), started post-mTBI day 7 (about 26%), male Swiss Webster) is reported as 87%. For the same molecule, the “facial mechanical sensitivity of sham mice” value ([1]; daily ld-IL2, male Swiss Webster) was “did not change”, the “hyperalgesia priming revealed by repeated low-dose NTG” value [1, 3] was “completely prevented” and the “mTBI-induced acute facial mechanical hypersensitivity” value [1, 3] was “completely prevented”. The “mTBI-induced facial skin hypersensitivity at the end of ld-IL2 treatment” value ([1]; day 15, ld-IL2 day 7 onward for 9 days, male Swiss Webster) was “fully reversed” and the tolerability in patients [2] was “well tolerated”.
